B1: HENV-32, human monoclonal antibody, IgG (antibody, V domains shown)
VH: QVQLVQSGAEVKKPGSSVKVSCKVSGGIFNRETINWVRQAPGQGLEWMGRITPIVDVPNYPRKFRGRVTITADKSTSTVYMELSGLRFEDTAIYFCARFRGHNYFDPWGQGTLVTVSS
VL: SYVLTQPPSVSVAPGQTARITCGGNNIGGKSVHWYQQKPGQAPVLVVYDDRDRPSGIPERFSGSNSGDTASLTISRVDAGDEADYFCQVWDNASDEAVFGGGTKLTVL
B2: HENV-32 Fab (Fab, V domains shown)
VH: QVQLVQSGAEVKKPGSSVKVSCKVSGGIFNRETINWVRQAPGQGLEWMGRITPIVDVPNYPRKFRGRVTITADKSTSTVYMELSGLRFEDTAIYFCARFRGHNYFDPWGQGTLVTVSS
VL: SYVLTQPPSVSVAPGQTARITCGGNNIGGKSVHWYQQKPGQAPVLVVYDDRDRPSGIPERFSGSNSGDTASLTISRVDAGDEADYFCQVWDNASDEAVFGGGTKLTVL
B3: HENV-26, human monoclonal antibody, IgG (antibody, V domains shown)
VH: EVQLLESGGGLIQPGGSLRLSCAASGFTFSRFTMSWVRQPPGKGPEWVSGISGSGGHTYYADSVKGRFTISRDNSKNTLYLQMNSLKAEDTAVYYCAKDGFVGQQLMRRGPWWFDPWGQGTLVTVSS
VL: SYVLTQPPSVSVAPGQTARISCGGNNIGNKGVHWYQQKPGQAPVVVVYDDSDRPSGIPERFSGSNSGNTATLTISRVEAGDEADYYCQVWDSSSDHVVFGGGTKLTVL

Tests used:
[1] = target: full-length NiVM RBP expressed on the surface of mammalian cells (Nipah virus, strain Malaysia, UniProt Q9IH62); test: cell-based or functional assay
[2] = target: full-length HeV-RBP expressed on the surface of mammalian cells (Hendra virus, UniProt O89343); test: cell-based or functional assay
[3] = target: T1, HeV-RBP head domain (Hendra virus receptor binding protein, residues 185 – 604) (Hendra virus, UniProt O89343); test: ELISA
[4] = target: T1, HeV-RBP head domain (Hendra virus …); test: BLI
[5] = target: full-length NiVB RBP expressed on the surface of mammalian cells (Nipah virus, strain Bangladesh, UniProt Q4VCP5, strain); test: flow cytometry on cells

T1 sequence (O89343 185-604): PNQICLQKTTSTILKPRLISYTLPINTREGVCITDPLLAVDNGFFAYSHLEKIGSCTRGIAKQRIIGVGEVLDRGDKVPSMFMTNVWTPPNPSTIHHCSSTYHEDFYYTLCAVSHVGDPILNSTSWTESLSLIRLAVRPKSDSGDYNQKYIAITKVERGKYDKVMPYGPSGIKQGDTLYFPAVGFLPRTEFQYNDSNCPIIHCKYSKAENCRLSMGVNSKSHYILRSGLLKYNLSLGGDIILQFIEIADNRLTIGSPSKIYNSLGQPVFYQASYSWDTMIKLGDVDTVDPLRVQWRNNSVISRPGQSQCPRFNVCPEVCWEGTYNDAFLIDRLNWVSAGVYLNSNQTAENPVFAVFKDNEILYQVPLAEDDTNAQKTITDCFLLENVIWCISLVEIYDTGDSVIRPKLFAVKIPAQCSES
full-length NiVM RBP expressed on the surface of mammalian cells, sequence (Q9IH62 whole entry): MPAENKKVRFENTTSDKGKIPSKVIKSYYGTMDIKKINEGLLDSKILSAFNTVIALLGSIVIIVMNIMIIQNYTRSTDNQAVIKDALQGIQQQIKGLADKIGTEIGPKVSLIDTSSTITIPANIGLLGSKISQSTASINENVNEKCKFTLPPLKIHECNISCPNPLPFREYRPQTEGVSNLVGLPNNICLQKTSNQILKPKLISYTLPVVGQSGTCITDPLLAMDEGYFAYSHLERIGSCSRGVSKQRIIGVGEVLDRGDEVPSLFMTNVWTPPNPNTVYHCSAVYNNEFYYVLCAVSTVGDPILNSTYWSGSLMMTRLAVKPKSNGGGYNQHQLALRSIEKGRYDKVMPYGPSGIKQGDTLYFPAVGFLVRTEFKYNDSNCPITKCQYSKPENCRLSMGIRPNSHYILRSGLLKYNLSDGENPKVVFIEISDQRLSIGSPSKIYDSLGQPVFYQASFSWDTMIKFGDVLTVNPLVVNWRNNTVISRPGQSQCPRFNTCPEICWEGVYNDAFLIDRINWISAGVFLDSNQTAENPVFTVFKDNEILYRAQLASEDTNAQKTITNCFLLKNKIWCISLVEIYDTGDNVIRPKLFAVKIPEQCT
full-length HeV-RBP expressed on the surface of mammalian cells, sequence (O89343 whole entry, the tested form may be a part): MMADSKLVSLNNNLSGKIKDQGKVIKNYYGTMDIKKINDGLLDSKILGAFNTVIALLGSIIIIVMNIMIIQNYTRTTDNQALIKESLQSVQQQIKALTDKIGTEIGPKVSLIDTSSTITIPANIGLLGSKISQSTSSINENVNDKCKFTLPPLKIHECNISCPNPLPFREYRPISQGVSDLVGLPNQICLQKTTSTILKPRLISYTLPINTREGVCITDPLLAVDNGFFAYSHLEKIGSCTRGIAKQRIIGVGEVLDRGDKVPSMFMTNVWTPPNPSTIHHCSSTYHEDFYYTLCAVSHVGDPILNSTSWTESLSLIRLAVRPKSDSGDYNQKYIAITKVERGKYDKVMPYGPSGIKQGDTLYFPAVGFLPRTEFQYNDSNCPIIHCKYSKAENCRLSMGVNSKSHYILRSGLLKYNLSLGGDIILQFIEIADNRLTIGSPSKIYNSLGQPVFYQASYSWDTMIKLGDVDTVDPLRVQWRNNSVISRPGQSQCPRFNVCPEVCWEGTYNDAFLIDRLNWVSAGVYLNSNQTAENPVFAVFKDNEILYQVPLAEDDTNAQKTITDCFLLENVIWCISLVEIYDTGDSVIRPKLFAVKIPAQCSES

Binder | IC50 of neutralization of NiVM (plaque reduction assay) [1] [µg/mL] | IC50 of neutralization of HeV (plaque reduction assay) [2] [µg/mL] | Area under the curve [3] | Kd [4] [nM] | binding result [5]
B1 | 0.31 | 0.27 | 3.71 |  | 
B2 |  |  |  | 2.1 | 
B3 |  |  | 5.39 |  | binds

Source: publication PMC7771633 (Cell, 2020)
